This note sets out measurements from patent US20240293518A1 (HEALTH RESEARCH, published 2024).

By Kd is commonly meant the free concentration of one partner at which half of the binding sites on the other are occupied at equilibrium, for simple one-to-one binding.

In assay [1] the target is ErbB2/delD2, human ErbB2 with deletion of ECD subdomain 2 (deletion of amino acids 196-320) (human) (UniProt P04626). Put plainly: ELISA; panel e; cell lysates. The following applies: ligand. (In an ELISA, binding on a coated surface is turned into a signal by an enzyme label.)
Assay [2] deals with ErbB2/delD4, human ErbB2 with deletion of ECD subdomain 4 (deletion of amino acids 489-560) (human) (UniProt P04626). Put plainly: ELISA; panel e; cell lysates. The following applies: ligand.
Assay [3] has as its target T1, ErbB3/ECD-Fc, chimera of the ECD (Ser20-Thr643) of human ErbB3 and Fc (human, UniProt P21860 20-643).
T1 construct: range 20-643; Bought from R&D Systems; also called human ErbB3/ECD-Fc; R&D Systems 348-RB-050; not shown: Fc (of human IgG1)
Nature of the assay: pull-down with protein G-sepharose, SDS-PAGE, silver stain. As to the method: (§1) Similar protein expression levels of ErbB2 and its mutants were detected in CHO-K1 cells transiently transfected with the plasmids (FIG. 1d). An equal amount of ErbB2 and its mutants, based on western blot quantification, were used in the same ELISA mentioned above. […] Thus, PEPD bound to D3, but D2 and D4, the latter in particular, may facilitate PEPD binding to ErbB2.
(§2) Immunoprecipitation. PEPD was incubated with ErbB2/ECD-Fc, ErbB3/ECD-Fc, ErbB4/ECD-Fc or Fc in binding buffer for 2 h at 37° C., followed by pull down with protein G-sepharose beads. […] For detection of direct and specific binding of PEPD or NRG-1 to ErbB2, ErbB3 or ErbB4, recombinant human PEPD or NRG-1 was incubated with recombinant human ErbB2/ECD-Fc, recombinant human ErbB3/ECD-Fc, recombinant human ErbB4/ECD-Fc or recombinant human Fc in 0.4 ml binding buffer. All solutions were incubated for 2 h at 37° C., followed by incubation with protein G-sepharose beads for 1 h at room temperature. […] In experiments using whole cell lysates, cells were lysed in M-PER buffer supplemented with a proteinase inhibitor mix (Roche Applied Science), and the lysates were incubated with a specific antibody overnight at 4° C., followed by pull down by protein G-agarose. […]

For assay [4], the target named is T2, ErbB4/ECD-Fc, chimera of the ECD (Gln26-Arg649) of human ErbB4 and the Fc (human, UniProt Q15303 26-649).
T2 construct: range 26-649; Bought from R&D Systems; also called human ErbB4/ECD-Fc; R&D Systems 1131-ER-050; not shown: Fc (of human IgG1)
T2 sequence (looked up): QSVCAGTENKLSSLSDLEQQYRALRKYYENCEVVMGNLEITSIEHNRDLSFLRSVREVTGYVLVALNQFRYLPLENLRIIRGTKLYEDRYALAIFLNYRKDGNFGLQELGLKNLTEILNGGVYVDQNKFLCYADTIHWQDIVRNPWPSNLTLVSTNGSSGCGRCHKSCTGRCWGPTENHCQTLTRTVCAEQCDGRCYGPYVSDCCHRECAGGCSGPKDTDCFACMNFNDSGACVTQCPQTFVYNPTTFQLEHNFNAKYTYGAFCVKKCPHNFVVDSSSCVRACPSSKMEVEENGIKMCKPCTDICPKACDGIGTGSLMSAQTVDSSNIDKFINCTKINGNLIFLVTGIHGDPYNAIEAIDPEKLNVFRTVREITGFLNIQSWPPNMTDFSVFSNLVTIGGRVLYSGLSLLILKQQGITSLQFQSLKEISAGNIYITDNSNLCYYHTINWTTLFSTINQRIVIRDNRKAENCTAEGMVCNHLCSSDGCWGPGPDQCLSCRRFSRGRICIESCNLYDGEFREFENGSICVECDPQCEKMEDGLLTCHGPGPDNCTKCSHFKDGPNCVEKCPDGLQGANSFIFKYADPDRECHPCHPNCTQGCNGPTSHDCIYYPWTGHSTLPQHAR
The description is as above. The method, then: as §1, §2

In assay [5] the target is T3, ErbB2/delD4, human ErbB2 with deletion of ECD subdomain 4 (deletion of amino acids 489-560) (human, UniProt P04626 23-1255).
T3 construct: whole, on cells; Transiently expressed in CHO-K1 cells; also called pCMV6-XL5-ERBB2/delD4
Nature of the assay: ELISA, equal amounts of ErbB2 and mutants from lysates of transfected CHO-K1 cells.
Excerpt: as §1, with “Overexpression of human ErbB2 in CHO-K1 cells was readily achieved by gene transfection (FIG. 1b). […] Next, we removed the four ECD subdomains of human ErbB2 one at a time (FIG. 1d), using the ErbB2-expressing plasmid pCMV6-XL5-ERBB2 as a template. Similar” for “Similar”
(§3) ELISA-based measurement of PEPD and PEPD binding to ErbB2. To measure PEPD binding to human ErbB2 or its deletion mutants, ELISA plates were coated overnight at 4° C. with 100 μl/well of an ErbB2 antibody (binding to the cytoplasmic tail of ErbB2) at 10 μg/ml. After washing the wells three times with PBST, residual protein binding sites in the wells were blocked by incubation for 2 h at room temperature with 300 μl/well of 1% BSA in PBS. […] After three washes with PBST, 100 μl of a biotin-conjugated anti-His antibody (1:10,000 dilution; note that PEPD is His-tagged) was added to each well and incubated for 2 h at room temperature.

Assay [6] deals with T4, ErbB2/delD2, human ErbB2 with deletion of ECD subdomain 2 (deletion of amino acids 196-320) (human, UniProt P04626 23-1255).
T4 construct: whole, on cells; Transiently expressed in CHO-K1 cells; also called pCMV6-XL5-ERBB2/delD2
The assay is described as above.
Excerpt: as §1, with “Overexpression of human ErbB2 in CHO-K1 cells was readily achieved by gene transfection (FIG. 1b). […] Next, we removed the four ECD subdomains of human ErbB2 one at a time (FIG. 1d), using the ErbB2-expressing plasmid pCMV6-XL5-ERBB2 as a template. Similar” for “Similar”
as §3

For assay [7], the target named is T5, ErbB2 p95 fragment (minus ECD) (human, UniProt P04626 648-1255, limits assumed).
T5 construct: domain: trans-membrane and intracellular regions (p95 fragment, minus ECD); Generated in CHO-K1/ErbB2 cells by 1 mM APMA for 0.25 h and tested in cell lysates; also called trans-membrane and intracellular regions of ErbB2
Put plainly: co-immunoprecipitation with a PEPD antibody from lysates of APMA-treated CHO-K1/ErbB2 cells, western blot. As to the method: FIG. 8. Data showing validation of a cell line used in the present disclosure, and lack of binding of PEPD to the transmembrane and intracellular regions of human ErbB2. (a) CHO-K1 cells were transiently transfected with an ErbB2-expressing plasmid (pCMV6-XL5-ERBB2) or the empty plasmid for 24 h. Human bladder cancer RT-4 cells and human breast cancer MCF-7 cells were untreated and were used as positive controls for ErbB1, ErbB3 and ErbB4. Cell lysates were analyzed by western blotting. GAPDH is a loading control. (b) CHO-K1 cells stably expressing ErbB2 (CHO-K1/ErbB2 cells) were treated with 1 mM APMA for 0.25 h. Cell lysates were then prepared and analyzed by western blotting (the first lane on the right). The same cell lysates were mixed with 1 μM PEPD, which were then incubated with a PEPD antibody or an isotype-matched IgG, pulled down with protein G-agarose, and analyzed by western blotting.
Immunoprecipitation. PEPD was incubated with ErbB2/ECD-Fc, ErbB3/ECD-Fc, ErbB4/ECD-Fc or Fc in binding buffer for 2 h at 37° C., followed by pull down with protein G-sepharose beads. The immunoprecipitates were washed with IP washing buffer and analyzed by western blotting. […] The immunoprecipitates were washed with IP washing buffer and analyzed by western blotting.
(In general: A western blot detects proteins with antibodies after separation by electrophoresis.)

The target of assay [8] is T6, Human ErbB2, wild type, full length (human, UniProt P04626 23-1255).
T6 construct: whole, on cells; Three sources: CHO-K1 cells transiently transfected with pCMV6-XL5-ERBB2, CHO-K1/ErbB2 cells expressing it stably, and BT-474 cells where it is endogenous; The ELISA and the immunoprecipitations used cell lysates; The other assays used living cells; also called WT-ErbB2; Her2
Nature of the assay: ELISA; ErbB2 captured from lysates of ErbB2-transfected CHO-K1 cells by an antibody to its cytoplasmic tail, His-tagged PEPD detected with anti-His.
Excerpt: as §1, with “Overexpression of human ErbB2 in CHO-K1 cells was readily achieved by gene transfection (FIG. 1b). […] Next, we removed the four ECD subdomains of human ErbB2 one at a time (FIG. 1d), using the ErbB2-expressing plasmid pCMV6-XL5-ERBB2 as a template. Similar” for “Similar”
as §3

T1 sequence (P21860 20-643 limits assumed, change not shown): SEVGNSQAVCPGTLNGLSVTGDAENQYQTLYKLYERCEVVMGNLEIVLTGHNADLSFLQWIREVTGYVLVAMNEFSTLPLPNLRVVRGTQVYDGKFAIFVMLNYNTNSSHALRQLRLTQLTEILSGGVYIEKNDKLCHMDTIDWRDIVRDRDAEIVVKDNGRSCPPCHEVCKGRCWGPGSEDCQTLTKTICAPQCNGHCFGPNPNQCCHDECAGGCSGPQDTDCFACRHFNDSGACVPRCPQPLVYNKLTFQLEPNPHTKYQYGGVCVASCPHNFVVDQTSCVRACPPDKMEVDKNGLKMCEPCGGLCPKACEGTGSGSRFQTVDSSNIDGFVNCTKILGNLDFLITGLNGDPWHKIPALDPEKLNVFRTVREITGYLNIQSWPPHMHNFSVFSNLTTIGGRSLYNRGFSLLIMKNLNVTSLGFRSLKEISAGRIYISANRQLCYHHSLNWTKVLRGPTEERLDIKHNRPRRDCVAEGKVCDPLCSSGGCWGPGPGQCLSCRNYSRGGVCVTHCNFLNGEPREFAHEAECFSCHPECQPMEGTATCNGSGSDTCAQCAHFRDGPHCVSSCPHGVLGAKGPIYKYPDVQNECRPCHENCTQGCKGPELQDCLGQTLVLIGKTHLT

“Recombinant human PEPD (peptidase D, prolidase), wild type, 6×His tagged at the carboxy terminus (from UniProt P12955 1-493)”: the Kd in assay [1] is 25.9 nM; in assay [2] it was 372 nM.

B1: Recombinant human PEPD (peptidase D, prolidase), wild type, 6×His tagged at the carboxy terminus (ligand)
chain: MAAATGPSFWLGNETLKVPLALFALNRQRLCERLRKNPAVQAGSIVVLQGGEETQRYCTDTGVLFLQESFFHWAFGVTEPGCYGVIDVDTGKSTLFVPRLPASHATWMGKIHSKEHFKEKYAVDDVQYVDEIASVLTSQKPSVLLTLRGVNTDSGSVCREASFDGISKFEVNNTILHPEIVESRVFKTDMELEVLRYTNKISSEAHREVMKAVKVGMKEYGLESLFEHYCYSRGGMRHSSYTCICGSGENSAVLHYGHAGAPNDRTIQNGDMCLFDMGGEYYSVASDITCSFPRNGKFTADQKAVYEAVLLSSRAVMGAMKPGDWWPDIDRLADRIHLEELAHMGILSGSVDAMVQAHLGAVFMPHGLGHFLGIDVHDVGGYPEGVERIDEPGLRSLRTARHLQPGMVLTVEPGIYFIDHLLDEALADPARASFLNREVLQRFRGFGGVRIEEDVVVIDSGIELLTCVPRTVEEIEACMAGCDKAFTPFSGPKHHHHHH
notes: Made in bacteria (pBAD/Thio-TOPO, without the N-terminal Thio) and purified on nickel; also called WT-PEPD; rhPEPD
For the molecule B1, the binding result in assay [3] was “no binding (tested: PEPD 1 µM with 0.04 µM ErbB3/ECD-Fc)”; in assay [4], “no binding (tested: PEPD 1 µM with 0.04 µM ErbB4/ECD-Fc)”; in assay [7], “no binding (tested: 1 µM PEPD)”. The entries for the “fold reduction of binding affinity against wild-type ErbB2” value in assay [5] and in assay [6] were 51 fold and 3.5 fold, respectively. Also, in assay [8], the Kd was 7.3 nM.
